# Data as given in patent EP0751225B1, “Process for the identification of proteolytic activities and/or inhibitors thereof” (TECNOGEN S.C.P.A., priority 1990, dated 1992).
# Target: T1, ET [16-29] (Homo sapiens, UniProt P05305)
# T1 construct: made in house; host or cells: chemical solid-phase peptide synthesis (Fmoc)
# Experiment: Capacity of affinity chromatography columns prepared with the immobilized peptides (retention of injected ET [16-29])
# Assay type: binding
# Settings: 500 microlitres of ET [16-29] at 1 mg/ml injected; peptide immobilized on EUPERGIT C30 N; 0.1 M TRIS HCL pH 6.8, 1 ml/min
# Method: The peptides Δ ET [16-29] and 8 Δ ET [16-29] have immobilized on a support previously activated through the introduction of epoxide groups (EUPERGIT C30 N), employing the same peptide/support ratio. The peptides 8 Δ ET [16-29] (2 mg) and Δ ET [16-29] (2 mg) have been dissolved separately in 10 ml of 0.1 M […], 0.5 M NaCl, pH 8.5, and added separately to two aliquots of 1 g of EUPERGIT C30 N. The mixtures have been incubated for 24 hours under stirring at room temperature. The introduction of the peptides within the resin has been followed by means of RP-HPLC, and after 24 hours an amount of about 80 % of the peptide initially present in the two preparations turned out to be covalently linked to the support. Such incorporation percentage has been then confirmed by analysis of amino acids, which analysis were carried out on weighed amounts of the two derivatized resins.
# The two derivatized peptide supports were employed for filling two glass columns for affinity chromatography (80 x 6.6 mm I.D., total volume 2.3 ml) that were equilibrated with 0.1 M TRIS* HCL, at pH 6.8 and with a flowrate of 1 ml/min. The eluent was continuously monitored by means of optical absorption determinations at 280 nm wavelength. For determining the capacity of the columns, 500 microlitres of ET [16-29] dissolved at a concentration of 1 mg/ml in the elution buffer were injected. […]
sequence,measurement,value
RKFLAGLRARRLKF [Δ ET [16-29]],injected material retained by the column,50%
